{"source": "patent US20220227815A1", "about": "“COMPOSITIONS AND METHODS USEFUL IN TREATING BRAIN DISEASES” (University of Kansas, priority 2019, published 2022)", "molecules": {"B1": {"name": "BDNF: recombinant brain-derived neurotrophic factor (13 kDa monomer), Peprotech (protein, UniProt P23560 19-247, looked up)", "Neurotrophic factor BDNF …": "APMKEANIRGQGGLAYPGVRTHGTLESVNGPKAGSRGLTSLADTFEHVIEELLDEDQKVRPNEENNKDADLYTSRVMLSSQVPLEPPLLFLLEEYKNYLDAANMSMRVRRHSDPARRGELSVCDSISEWVTAADKKTAVDMSGGTVTVLEKVPVSKGQLKQYFYETKCNPMGYTKEGCRGIDKRHWNSQCRTTQSYVRALTMDSKKRIGWRFIRIDTSCVCTLTIKRGR"}}, "key": {"SJL/elite EAE mice": {"test_system": "SJL/elite EAE mice", "assay": "Suppression of EAE relapse, clinical scores", "type": "in vivo", "settings": "BDNF 5.71 nmol/kg and/or ADTC5 10 μmol/kg i.v.", "method": "EAE Mouse Model: EAE disease in animals (5-8-week-old SJL/elite female mice, Charles River) was stimulated by injecting 200 μg of PLP139-151 peptide in a 0.2 mL emulsion containing equal volumes of PBS and complete Freund's adjuvant (CFA) with killed mycobacterium tuberculosis strain H37RA (Difco, Detroit, Mich.; final concentration 4 mg/mL) as described in Kobayashi, N.; Kiptoo, P.; Kobayashi, H.; Ridwan, R.; Brocke, S.; Siahaan, T. J. Prophylactic and therapeutic suppression of experimental autoimmune encephalomyelitis by a novel bifunctional peptide inhibitor. Clin Immunol 2008, 129, (1), 69-79 and Kobayashi, N.; Kobayashi, H.; Gu, L.; Malefyt, T.; Siahaan, T. J. Antigen-specific suppression of experimental autoimmune encephalomyelitis by a novel bifunctional peptide inhibitor. J Pharmacol Exp Ther 2007, 322, (2), 879-86. Briefly, […] of PLP/CFA emulsion was administered to four different regions above the shoulders and the flanks on Day 0 followed by intraperitoneal injection of 200 ng of pertussis toxin (List Biological Laboratories, Campbell, Calif.) on Days 0 and 2. Clinical scores that reflect the disease progression were determined using an 11-point scale with 0.5 increments ranging from 0 to 5; 0 being no apparent disease and 5 being moribund. On Day 21, mice were randomly separated into […]: (i) BDNF (5.7 nmol/kg)+ADTC5 (10 μmol/kg; n=7), (ii) BDNF alone (5.71 nmol/kg, n=6), (iii) ADTC5 alone (10 μmol/kg; n=5), and (iv) vehicle (n=5). All mice received 8 intravenous injections every 4 days beginning on Day 21. The mice were euthanized via CO2 inhalation on Day 55. Area under the curve (AUC) calculations were used to compare clinical scores across groups; AUC calculations were performed using the trapezoid rule from Days 21 to 55."}, "APP/PS1 mice": {"test_system": "APP/PS1 mice", "assay": "Novel object recognition (NOR) assessment", "type": "in vivo, transgenic APP/PS1 mice", "settings": "all groups compared", "method": "Animals: All animal studies were carried out under the approved animal protocol (AUS-74-11) granted by Institutional Animal Care and Use Committee (IACUC) at The University of Kansas. Animal Care Unit (ACU) personnel and veterinarians were involved in the care of the animals used in this study. Female transgenic APP/PS1 (MMRRC stock #34832-Jax) were obtained from Jackson Laboratory (Bar Harbor, Me.) and housed until at least 6 months of age. Mice received intravenous (i.v.) injections of either BDNF (5.7 nmol/kg)+ADTC5 (10 μmol/kg; n=7), BDNF alone (5.7 nmol/kg; n=6), or vehicle (n=6) every 4 days, for a total of 8 injections. At the end of the study, the mice were euthanized via CO2 inhalation and perfused with PBS immediately followed by 4% formalin fixative solution. The brains were extracted and post-fixed overnight in the perfusion-fixation solution then transferred to 70% ethanol PBS solution for paraffin embedding.\nNovel object recognition assessment: Twenty-four hours following the Y-maze assessment, the mice were subjected to Novel Object Recognition (NOR) assessment. […] The mice were allowed to explore the objects for 10 min and the total amount of time each mouse spent interacting with each object was measured. […]"}}, "data": [{"molecule": "B1", "values": [{"measurement": "locomotion / paralysis observed", "setting": "SJL/elite EAE mice; 8 injections", "result": "partial or full hind leg paralysis and full tail paralysis"}, {"measurement": "EAE clinical body scores", "setting": "SJL/elite EAE mice; 8 injections every 4 days from day 21, compared with other groups/vehicle", "result": "no significant difference"}, {"measurement": "total time spent with either of the two objects", "setting": "APP/PS1 mice", "result": "no significant difference"}]}]}
